Biological target: MLL3 ePHD6 E1097A (human) (UniProt Q8NEZ4)
Test: ITC; peptide (1–2 mM) in the syringe injected into protein (50–100 μM) in the cell; 25 °C; 20 mM Tris pH 7.5, 150 mM NaCl; single-site binding model

fold reduction of binding against the wild type: 2 fold
Substance: histone H4 peptide H4_(11–21) (from UniProt P62805 12-22)

Source: PMC6318328, “Structural insights into trans-histone regulation of H3K4 methylation by unique histone H4 binding of MLL3/4” (Nature Communications, 2019)
